# Experimental data published in publication PMC3936747 (Nucleic Acids Research, 2013).
# Changes are numbered by the printed parent chain. Read-outs that look alike come from different tables or passages of the source.
# T1: SpoIIIE motor domain (SpoIIIE C-terminal) (Bacillus subtilis, UniProt P21458 177-787)
# T1 sequence: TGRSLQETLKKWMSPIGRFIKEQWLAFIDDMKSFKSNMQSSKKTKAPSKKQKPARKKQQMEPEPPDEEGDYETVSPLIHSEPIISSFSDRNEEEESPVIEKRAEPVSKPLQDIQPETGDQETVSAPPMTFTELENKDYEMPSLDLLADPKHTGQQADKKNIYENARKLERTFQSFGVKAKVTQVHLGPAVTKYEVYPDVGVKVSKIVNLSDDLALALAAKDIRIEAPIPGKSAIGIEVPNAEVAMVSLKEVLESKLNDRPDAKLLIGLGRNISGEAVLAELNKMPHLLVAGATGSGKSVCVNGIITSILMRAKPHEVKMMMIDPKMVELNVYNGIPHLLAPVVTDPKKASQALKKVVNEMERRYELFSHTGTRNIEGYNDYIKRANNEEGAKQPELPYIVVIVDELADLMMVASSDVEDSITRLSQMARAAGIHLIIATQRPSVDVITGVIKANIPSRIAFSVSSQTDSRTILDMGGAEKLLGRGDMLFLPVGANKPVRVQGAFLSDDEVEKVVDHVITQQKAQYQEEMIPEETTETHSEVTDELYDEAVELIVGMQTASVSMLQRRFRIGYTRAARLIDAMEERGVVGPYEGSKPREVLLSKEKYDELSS
# T2: SpoIIIE467 (Walker A mutant) (Bacillus subtilis, UniProt P21458 177-787, G467S)
# T2 sequence: T1 sequence with G291S
# B1: SpoIIIE C-terminal motor domain (residues 177-787) with a C-terminal hexahistidine tag (domain or fragment, Bacillus subtilis, UniProt P21458 177-787, looked up)
# chain: T1 sequence
# B2: DNANS (43 bp, no SRS) (dsDNA)
# DNA 1: GCGGAGGCGGGAGGCGGAGATCTTACCGCTGTTGAGATCCAGC
# DNA 2: GCTGGATCTCAACAGCGGTAAGATCTCCGCCTCCCGCCTCCGC
# Assays:
# [1] = biological target: the molecule itself; assay: negative-stain electron microscopy
# [2] = biological target: T1, SpoIIIE motor domain (SpoIIIE …); assay: fluorescence anisotropy
# [3] = biological target: T2, SpoIIIE467 (Walker A mutant); assay: fluorescence anisotropy
# [4] = biological target: T1, SpoIIIE motor domain (SpoIIIE …); assay: fluorescence anisotropy; remark: listed apart in the source
# [5] = biological target: T1, SpoIIIE motor domain (SpoIIIE …); assay: fluorescence anisotropy; remark: listed apart in the source
binder,measurement,setting,value
B1,stoichiometry N,[1],6
B2,Kd,[2],61 ± 11 nM
same,Kd,[3],63 ± 3 nM
same,Kd,[4],43 ± 9 nM
same,Kd,[5],60 ± 9 nM
